Results from US20040092720A1 (US Dept. of Health and Human Services, published 2004).

Key:
recombinant human IL-6 [1] = biological target: T1, recombinant human IL-6 (human, UniProt P05231 30-212, labeled with radioactive iodine); assay: radioiodinated IL-6 on peptide array
T1 construct: Labeled probe in solution, added to wells that carry the synthetic peptides; also called IL-6 ligand; Interleukin-6
Target sequence in this assay (P05231 30-212 limits assumed): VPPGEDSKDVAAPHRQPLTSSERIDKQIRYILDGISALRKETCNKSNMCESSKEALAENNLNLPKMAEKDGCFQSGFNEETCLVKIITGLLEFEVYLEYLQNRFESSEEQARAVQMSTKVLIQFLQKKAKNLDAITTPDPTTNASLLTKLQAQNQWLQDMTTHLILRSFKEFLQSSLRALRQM

recombinant human IL-6 [2] = biological target: T1, recombinant human IL-6; assay: radioiodinated IL-6 on peptide array; experiment D1-D10
Protocol: Synthetic peptide arrays were constructed in 96-well microtiter plates in accordance with the method set forth in WO 91/02714 (Saxinger), and used to test the binding of recombinant human IL-6 that had been labeled with radioactive iodine (radiolabeling by standard methods). After incubating the radiolabeled IL-6 ligand in a well with each synthetic peptide, a washing step was performed to remove unbound label, and the relative level of radioactivity remaining in each well of the plate was evaluated to determine the relative affinity of each peptide for IL-6 ligand.

Row | Binder | Counts/minute bound (counts/minute) (recombinant human IL-6 [1]) | Counts/minute bound (recombinant human IL-6 [2])
1 | PRSTPSLTTKAVLL [Peptide B8] | 1850 | 
2 | FGTLLCIAIVLRFKKTWKLRA [Peptide D6] |  | 144000 counts/minute
3 | TWKLRALKEGKTSMHPPYSLG [Peptide D9] |  | 5530 counts/minute
4 | LRFKKTWKLRALKEGKTSMHP [Peptide D8] |  | 20400 counts/minute
5 | CIAIVLRFKKTWKLRALKEGK [Peptide D7] |  | 52500 counts/minute
6 | AAGSHPSRWAGMGRRL [Peptide A6] | 1750 | 

The next lines start with the values.

Row | Counts/minute bound (counts/minute) (recombinant human IL-6 [1]) | Counts/minute bound (recombinant human IL-6 [2]) | Binder
7 | 2080 |  | SDKAPCITDWQQEDGTVHRTYLRG [Peptide E47]
8 | 1820 |  | LTCNILTFGQLEQNVYGITIISGL [Peptide E11]
9 |  | 4970 counts/minute | ALKEGKTSMHPPYSLGQLVPE [Peptide D10]
